Results: the supplement of paper PMC10567573

B1: FCHO1 (parent)
chain: FTSSPSPFSSSSPENVEDSGLDSP
B2: ALKBH7 (parent)
chain: SVICRSLPEGMGPGESGQPPPAC

Variants of: B1
Assay: protein stability index of a GFP-peptide fusion (GPS, HEK-293T) (PSI 1-6); higher = more stable
Conditions: c terminus: a fixed tail appended
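Also: lentivirally expressed fusions sorted by FACS into six bins by GFP to DsRed ratio, PSI derived from sequencing read proportions per bin multiplied by bin number.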

Protein stability index, by site and new letter:
V16: K 1.9, L 1.7, M 1.68, N 1.86, P 1.6, Q 1.91, R 2.08, S 2.15, T 2.52, W 2.16, Y 2.03
E17: A 1.5, C 1.68, D 1.84, F 2.21, G 1.96, H 1.98, I 1.67, K 1.78, L 1.88, M 2.32, N 2.1, P 1.8, Q 1.85, R 1.86, S 2.53, T 2.26, V 1.3, W 1.65, Y 2.23
D18: A 1.62, C 2.17, E 1.92, F 2.26, G 1.83, H 2.7, I 2.01, K 1.91, L 2.05, M 1.99, N 2.42, P 2.01, Q 1.93, R 1.6, S 1.82, T 2.03, V 1.73, W 1.92, Y 2.27
S19: A 2.04, C 2.22, D 1.9, E 1.81, F 2.24, G 1.64, H 2.46, I 2.27, K 1.95, L 2.32, M 1.5, N 2.06, P 2.26, Q 2.21, R 2.39, T 2.34, V 2, W 1.57, Y 2.78
G20: A 1.88, C 2.31, D 1.88, E 2.04, F 2.32, H 2.43, I 1.97, K 2.87, L 2.07, M 2.07, N 1.98, P 1.86, Q 1.99, R 1.91, S 2.09, T 3.02, V 1.64, W 1.56, Y 2.33
L21: A 1.49, C 2.23, D 2.06, E 1.95, F 2.07, G 2.12, H 2.27, I 2.87, K 2.02, M 2.84, N 2.28, P 2.14, Q 2.03, R 2.21, S 1.81, T 2.52, V 2.01, W 1.7, Y 2.19
D22: A 2, C 2.47, E 2.6, F 1.31, G 1.86, H 2.29, I 2.11, K 1.74, L 2.14, M 1.48, N 2.96, P 2.23, Q 1.83, R 2.04, S 1.78, T 2.18, V 2.43, W 2.62, Y 2.42
S23: A 2.06, C 1.68, D 2.18, E 1.88, F 2.18, G 1.81, H 2.44, I 1.91, K 2.17, L 2.6, M 1.68, N 1.78, P 2.27, Q 2.66, R 1.79, T 1.8, V 1.56, W 2.12, Y 1.37
P24: A 1.38, C 2.99, D 1.85, E 1.84, F 1.89, G 1.77, H 2.42, I 1.96, K 1.96, L 1.98, M 2.24, N 1.81, Q 2.32, R 2.47, S 1.94, T 2.08, V 2.02, W 1.54, Y 2.35

Variants of: B2
Assay: as above
Conditions: c terminus: native

Protein stability index: each site, then its substitutions
S1: D 1.87, E 3.06, G 2.23, H 1.98, I 3.78, M 1.47, N 1.63, P 2.23, R 1.39, T 2.2
V2: A 2.4, C 1.73, D 2.05, E 2.4, F 2.78, G 2.08, H 1.78, I 2.77, K 2.14, M 2.57, N 2.41, P 2.31, Q 2.26, S 2.67, T 2.9
I3: A 2.19, E 2.88, F 1.66, H 3.61, K 1.65, L 1.6, M 1.43, N 2.23, P 2.4, Q 1.49, R 2.64, S 2.51, T 1.92, V 1.84, Y 1.62
C4: A 3.06, D 1.58, F 1.61, G 1.79, H 2.29, I 2.88, K 1.37, L 2.03, M 1.75, N 2.24, P 2.4, Q 2.83, R 1.72, S 1.82, T 1.62, V 1.63, W 2.62, Y 1.47
R5: A 1.88, C 2.28, D 2.56, E 2.46, F 1.51, G 2.09, H 2.73, I 1.44, K 2.32, L 1.66, M 1.8, N 1.7, P 2.59, Q 2.04, S 2.65, T 2.1, Y 1.46
S6: A 2.01, C 2.03, D 2.54, E 3.01, H 2.71, I 1.43, K 2.28, L 1.6, M 1.68, P 2.05, Q 2.08, R 1.95, T 2.07, Y 2.25
L7: A 2.32, C 2.05, D 2.98, E 2.16, F 2.35, H 1.63, I 2.36, M 1.67, Q 2.67, R 1.85, S 2.14, T 3.06, V 1.99, Y 1.67
P8: A 2.08, E 2.46, G 2.19, H 2.94, I 1.65, M 2.93, N 2.48, Q 2.53, S 2.32, T 1.67, V 1.42, W 2.01
E9: C 1.02, D 2.97, F 1.86, G 2.54, H 1.77, I 1.99, K 1.7, L 1.23, M 1.55, N 1.93, Q 1.83, R 1.91, S 1.5, T 1.7, W 1.68, Y 1.85
G10: A 2.59, C 1.95, D 2.29, E 1.91, F 1.89, I 1.95, K 1.91, L 1.51, M 3.27, N 1.5, P 1.88, R 1.76, S 3.04, T 1.03, Y 1.91
M11: A 2.37, C 1.73, D 4.2, E 3.08, F 1.49, H 1.98, L 1.99, N 2.81, P 1.84, R 2.29, S 2.23, W 1, Y 2.52
G12: A 2.17, D 2.52, E 2.85, F 1.54, H 1.69, I 1.87, K 2.22, L 1.85, M 2.68, N 2.09, P 2.37, Q 2
